{"source": "patent US20150010920", "target": "EGFP-T/C1 (EGFP-E-III-F-172)", "data": [{"protein": "protease type X (Sigma, St. Louis) (protein) ITGTSTVGVGRGVLGDQKNINTTYSTYYYLQDNTRGNGIFTYDAKYRTTLPGSLWADADNQFFASYDAPAVDAHYYAGVTYDYYKNVHNRLSYDGNNAAIRSSVHYSQGYNNAFWNGSQMVYGDGDGQTFIPLSGGIDVVAHELTHAVTDYTAGLIYQNESGAINEAISDIFGTLVEFYANKNPDWEIGEDVYTPGISGDSLRSMSDPAKYGDPDHYSKRYTGTQDNGGVHINSGIINKAAYLISQGGTHYGVSVVGIGRDKLGKIFYRALTQYLTPTSNFSQLRAAAVQSATDLYGSTSQEVASVKQAFDAVGVK", "values": [{"measurement": "optical change / cleavage (absorbance at 397 nm, SDS-PAGE, MALDI-MS)", "value": "this sensor was not cleaved by thrombin and protease type X"}]}]}
